Test results as given in the supplement of paper PMC9170038.

Columns and labels:
MS2 coat protein [1] = assay: apparent KD of MS2 coat protein, switch ON state; designed switch direction (-1 OFF switch, 1 ON switch): -1; higher = weaker reporter binding; conditions: FMN input: 0 or 200 uM; Eterna round: R93 (includes R88 designs)
How it was run: (§1)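 Designed RNA switches were transcribed on-chip from Illumina sequencing clusters. They were then titrated with SNAP-549-labelled MS2 coat protein (twofold steps, 0.7 or 1.5 nM to 3 µM; 0.8–1.5 h to 10–20 min per step) in 100 mM Tris-HCl pH 7.5, 80 mM KCl, 4 mM MgCl2, without or with constant ligand. Apparent KD is the per-design median of normalised cluster binding-curve fits.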

MS2 coat protein [2] = assay: apparent KD of MS2 coat protein, switch OFF state (with FMN for OFF switches, without FMN for ON switches); designed switch direction (-1 OFF switch, 1 ON switch): -1; higher = weaker reporter binding; conditions: FMN input: 0 or 200 uM; Eterna round: R93 (includes R88 designs)
How it was run: as §1

Sequence	apparent KD of MS2 coat protein (MS2 coat protein [1])	apparent KD of MS2 coat protein (MS2 coat protein [2])
AGUCAUACAGGAUAUACAUGAGGAUCACCCAUGUAAAUCCUAAAAAGAAAAAAAUCAUGUAGAAGGGUAUGACA [EX3 224: Super Stable 24]	13 nM	17.2 nM
GGUUGGCGAGGAUAUACAUGAGGAUCACCCAUGUGAGAGAAAAAAGUGAGGAGGAGAAGUAGAAGGCGCUGACG [salish99-ex3-17]	18.9 nM	3.7 nM
GAAAAUUGAGGAUAUACGAACAUGUCAAAAGACGUGAAGGGACAUGAGGAUCACCCAUGUAGAAGGCGAAAAAG [Mat - Exclusion 2 - JL mod - D93]	32 nM	12.3 nM
AAGUUAUUAGGAUAUACUUGUGCGAUCCAUACGUUGAUAUUACAUGAGGAUCACCCAUGUAGAAGGAAUAAAAA [JR_Exc002_Sub414]	48.2 nM	45.2 nM
AAAAAACAUGAGGAUCACCCAUGUAAGGAUAUCCAAAAGAAAAGAAAAGAAAGAAGAAGGAGAAGGUACAAGAA [Sahure]	41.1 nM	32.4 nM
AAGAUGUCAGGAUAUACAUAAAUAAAAAAUUAUGUUAAAACACAUGAGGAUCACCCAUGUAGAAGGGACAUCAA [AJ 7]	17.2 nM	15.5 nM
AAAAAGGUAGGAUAUACAUGAGGAUCACCCAUGUGAAAGAAAAAUAAGAAAAGAAAGAGUAGAAGGACCAAAAA [JL JSci Mod]	31 nM	30.6 nM
AAAAAACAUGAGGAUCACCCAUGUAAGGAUAUGUAAAAUAAAAGAAAAAUAAAGAAAAGCAGAAGGUACAUGGA [JL wbt mod 15]	54.9 nM	91.1 nM
AACAGACAUGAGGAUCACCCAUGUAAGGAUAUCCAAAACGAUAAAACAAGAAUGACAGGGAGAAGGUACAGCAA [JR_Exc001_Sub007]	53.6 nM	49 nM
AACAAGACAGGAUAUACAUGAGGAUCACCCAUGUCACAAUAAAGCAGCGUAACACAAAGUAGAAGGGUCAUGGA [Ruby 9]	83.3 nM	71.5 nM
ACGAACCUAGGAUAUACAUGAGGAUCACCCAUGUACAACUAUCCAUGAAUGACACUCGGUAGAAGGAGGAUCAA [Rileenen]	15 nM	22.9 nM
ACAAACCUAGGAUAUACAUGAGGAUCACCCAUGUACAAAGGCGUAGGCGACAAAAGAGGUAGAAGGAGGAAAGG [Disoed]	21.9 nM	22.9 nM
AGCUAGUCAGGAUAUGCAUGAAUGUCAAAAGACGUAAAGGGACAUGAGGAUCACCCAUGUAGAAGGGACUAGCA [JL In the Red 4?]	120 nM	277 nM
AAGUUGACAGGAUAUACUUGGGCAACAAAUAAACUAAUAUAACAUGAGGAUCACCCAUGUAGAAGGGUCAGAAA [JR_Exc002_Sub207]	46.3 nM	56.4 nM
AAAAGGUGAGGAUAUUCGAAAAUAAAAUAAAAUAAAAUAAAGAAGAAGGCACAUGAGGAUCACCCAUGUAAUAA [LROPPY Exclusion 4 - v02_deltaG=2.94 break up the As]	25.9 nM	24.9 nM
AAAAAACAUGAGGAUCACCCAUGUGAGGAUAUGCAGCGAAUAAAGAAAGAAGAAAGCAGCAGAAGGCACACCAA [Amethyst 78]	26.4 nM	44.1 nM
AAAAAGUCAGGAUAUGCGAAGGCGUCUGAUAGACGAGGCUAGCAGAAGGGACAUGAGGAUCACCCAUGUGAAGA [Mat - Exclusion 4 - Eli mod - D84]	49.8 nM	97.5 nM
AAGAAGGUAGGAUAUACAUGAGGAUCACCCAUGUAAAAGAAAGAAAAGGGAAAGAAAAGUAGAAGGACCAAGAA [Kheperkheperure Ay]	32.9 nM	44.3 nM
GAUAGUGAAGGAUAUACUGGAGGAGUGCGAUAGAAGCAAGAACAUGAGGAUCACCCAUGUAGAAGGUCAGAAGU [JR_Exc002_Sub1224]	25.5 nM	23.2 nM
CUGGUGUCAGGAUAUGCAUAGCAGUGACCAAAACCCGGUCAGCAGAAGGGACAUGAGGAUCACCCAUGUUAAAG [Alatele]	22.3 nM	57.7 nM
AAGAAUCAAGGAUAUACAAGGAAGAAAGAAAAGAAAAGAAAACAUGAGGAUCACCCAUGUAGAAGGUGAUAGAA [EteRNA is fun!]	327 nM	846 nM
AAGAAGUGAGGAUAUACAUGAACGAAAAAAAAAAAGAGCAUGUAGAAGGCACAUGAGGAUCACCCAUGUCAAAA [Georg Simmel]	29.3 nM	27.8 nM
GGAGGCCAAGGAUAUACAUGAGGAUCACCCAUGUGAGAGAAAAAAGUGAGAAAGAAAAGUAGAAGGUGGUUUCG [salish99-ex3-129]	65.4 nM	131 nM

Sequence	apparent KD of MS2 coat protein (MS2 coat protein [1])	apparent KD of MS2 coat protein (MS2 coat protein [2])
AAAAAACAUGAGGAUCACCCAUGUCAGGAUAUCGAAAAAUAAAUAAAAAUAAAAUAAACGAGAAGGGACAAAAA [May 11]	39.8 nM	44.7 nM
AAAAAGUCAGGAUAUUCGGAAGGGAAAGCGCAAACCCAACCGAAGAAGGGACAUGAGGAUCACCCAUGUGGAAA [Ecls4-III 65% - Late G segment 1]	79 nM	88.9 nM
AAAAAGUGAGGAUAUACGCUGAAGAGUAGACACAACCAGGCGUAGAAGGCACAUGAGGAUCACCCAUGUACAAA [Ex4 Malc#9]	28.6 nM	26.1 nM
AAGGGACAUGAGGAUCACCCAUGUGAGGAUAUGAUGCGAAUAAAGAAAGAAUAAAGCAUCAGAAGGCACACCAA [Mat - Exclusion 1 - Eli mod - D66]	77.2 nM	109 nM
AAAAAGGCAGGAUAUACGAGUCAAAGAAAAGACAAAAAGGGACAUGAGGAUCACCCAUGUAGAAGGGCCAAAAA [Fiskers exclusion D2 62% 4]	51.6 nM	193 nM
AAGAAGACAGGAUAUACAUGAGGAUCACCCAUGUAAAAGAAAGAGGGAAAAGAGAAAAGUAGAAGGGUCAAGAA [Ptolemy III Euergetes I]	16.8 nM	20.5 nM
AGCUAGCGAGGAUAUGCGAACAUGUCAAAAGACGUGAAGGGACAUGAGGAUCACCCAUGUAGAAGGCGCUAGCA [JL 74% mod 4]	24.7 nM	29.6 nM
CUUGUGUGAGGAUAUGUAAGAUGAAUAAGCAGUUCUAAAAGGCAGAAGGCACAUGAGGAUCACCCAUGUAAAAU [Sodirexe]	61.3 nM	16.1 nM
ACAAGAUCAGGAUAUACAUGAGGAUCACCCAUGUGAAAGAACGAUUAACGACCAGCAAGUAGAAGGGAUCAGGA [Ruby 82]	20.5 nM	28.5 nM
CUCAAGUUAGGAUAUGUAAGAAAAGAAGAGAAAGAAAAGAAACAGAAGGAACAUGAGGAUCACCCAUGUAAGAA [EteRNA is fun!]	22.1 nM	24.1 nM
AACAAGACAGGAUAUACAUGAGGAUCACCCAUGUCACAAUAAAGCAGCGCAACACAAAGUAGAAGGGUCAUGGA [Ruby 10]	73.8 nM	59.2 nM
AAAAAUCGAGGAUAUACAUGAGGAUCACCCAUGUCAGAAAAUGACUACACAAAAGAAAGUAGAAGGCGAUAAAA [Ex 3 May 18]	29.4 nM	30.3 nM
AAAAAACAUGAGGAUCACCCAUGUGAGGAUAUGCUAUGGAAAUAAAAAAUAAAACAUAGCAGAAGGCACACCAA [Mat - Exclusion 1 - Eli mod - D44]	31 nM	42.9 nM
GCUCAGUAAGGAUAUUAAUGGCGCUGUUAUUCAGCACCAGCUGAGAAGGUACAUGAGGAUCACCCAUGUGGUGA [Berion]	240 nM	216 nM
AGCUAGUCAGGAUAUACAAAAAUGACAGAAGACGUAAGGGAACAUGAGGAUCACCCAUGUAGAAGGGACUAGCA [Diamond 43]	61.5 nM	184 nM
AGUGAGUGAGGAUAUCCCUGAAGAAUAAAAGAAAUAACGAGGGAGAAGGCACAUGAGGAUCACCCAUGUACACA [May 64]	30.6 nM	24.8 nM
AACAGUACAGGAUAUACAUGAGGAUCACCCAUGUGAAGAUUAAGUGGUGUACCACAAAGUAGAAGGGUACUGGA [Ruby 90]	54.9 nM	77.9 nM
AGUUGGCGAGGAUAUACAUGAGGAUCACCCAUGUGAGAGUAAAAAGUGAGAAAGAAAAGUAGAAGGCGCUCACA [JL Lego Mod 14]	77.5 nM	46.3 nM
GAAAGGGCAGGAUAUGCAGAGAGAGAGAGAGAAAAAAAAAAACAUGAGGAUCACCCAUGUAGAAGGGCCGAAAG [salish99-ex2-05]	42.4 nM	32.2 nM
GUGUACAGAGGAUAUACAUGAGCAUGGAAACAUGCAAGAUCACAUGAGGAUCACCCAUGUAGAAGGCUGUACAC [Ex2: 733]	50.3 nM	30.8 nM
AACUAGUGAGGAUAUACAAGAAAACAAACAAAAAUGAAGGGACAUGAGGAUCACCCAUGUAGAAGGCACUAACA [Diamond 70]	48.2 nM	100 nM
AACAGGUCAGGAUAUGUGGAAAAAAUAAAAAAAAUAAAAACACAGAAGGGACAUGAGGAUCACCCAUGUCAACA [May 24]	30 nM	25.3 nM
CUCAUGUGAGGAUAUGUACGAAAAAAUAAAAAAAUAAAAGUACAGAAGGCACAUGAGGAUCACCCAUGUGAAAA [EX4 398: Minimal 11]	42.5 nM	24.3 nM
